# In paper PMC2189183:
# Read-outs that look alike come from different tables or passages of the source.
# Experiments:
# Assay in all cases: conjugate formation
# [1] = target: HLA class I antigens of JY cells (human (endogenous in JY)) (UniProt P04439)
# [2] = target: HLA class I antigens of JY cells (human (endogenous in JY)) (UniProt P04439); remark: listed apart in the source
# [3] = target: HLA class I antigens of JY cells (human (endogenous in JY)) (UniProt P04439); remark: listed apart in the source
# UniProt P04439, sequence (P04439 whole entry, looked up): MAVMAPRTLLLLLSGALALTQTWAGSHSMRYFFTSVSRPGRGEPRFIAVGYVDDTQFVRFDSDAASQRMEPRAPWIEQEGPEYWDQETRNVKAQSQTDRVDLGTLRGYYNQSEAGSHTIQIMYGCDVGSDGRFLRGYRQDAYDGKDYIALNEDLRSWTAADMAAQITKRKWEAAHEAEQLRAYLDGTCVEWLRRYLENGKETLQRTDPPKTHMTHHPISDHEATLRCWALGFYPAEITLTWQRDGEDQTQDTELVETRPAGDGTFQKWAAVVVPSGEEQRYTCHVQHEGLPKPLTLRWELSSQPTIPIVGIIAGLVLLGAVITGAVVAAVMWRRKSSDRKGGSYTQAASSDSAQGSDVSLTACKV
substance,measurement,setting,value
CD8 (human CD8 expressed in the murine T cell hybridoma 16.T8-15) (from UniProt P01732 22-235) (receptor),percent conjugates,[1],22%
same,percent conjugates,[2],29%
same,percent conjugates,[3],42%
